Our source for the Kd values is publication PMC5053885.

The target of this experiment is Karyopherin-β2 (human) (UniProt Q92973). Put plainly: ITC. On the technique in general: In ITC the heat of successive injections is recorded.

The term Kd denotes the equilibrium constant for the complex coming apart. High values mean weaker binding, low ones tighter binding.

Chain of UniProt Q92973 (Q92973 9-898): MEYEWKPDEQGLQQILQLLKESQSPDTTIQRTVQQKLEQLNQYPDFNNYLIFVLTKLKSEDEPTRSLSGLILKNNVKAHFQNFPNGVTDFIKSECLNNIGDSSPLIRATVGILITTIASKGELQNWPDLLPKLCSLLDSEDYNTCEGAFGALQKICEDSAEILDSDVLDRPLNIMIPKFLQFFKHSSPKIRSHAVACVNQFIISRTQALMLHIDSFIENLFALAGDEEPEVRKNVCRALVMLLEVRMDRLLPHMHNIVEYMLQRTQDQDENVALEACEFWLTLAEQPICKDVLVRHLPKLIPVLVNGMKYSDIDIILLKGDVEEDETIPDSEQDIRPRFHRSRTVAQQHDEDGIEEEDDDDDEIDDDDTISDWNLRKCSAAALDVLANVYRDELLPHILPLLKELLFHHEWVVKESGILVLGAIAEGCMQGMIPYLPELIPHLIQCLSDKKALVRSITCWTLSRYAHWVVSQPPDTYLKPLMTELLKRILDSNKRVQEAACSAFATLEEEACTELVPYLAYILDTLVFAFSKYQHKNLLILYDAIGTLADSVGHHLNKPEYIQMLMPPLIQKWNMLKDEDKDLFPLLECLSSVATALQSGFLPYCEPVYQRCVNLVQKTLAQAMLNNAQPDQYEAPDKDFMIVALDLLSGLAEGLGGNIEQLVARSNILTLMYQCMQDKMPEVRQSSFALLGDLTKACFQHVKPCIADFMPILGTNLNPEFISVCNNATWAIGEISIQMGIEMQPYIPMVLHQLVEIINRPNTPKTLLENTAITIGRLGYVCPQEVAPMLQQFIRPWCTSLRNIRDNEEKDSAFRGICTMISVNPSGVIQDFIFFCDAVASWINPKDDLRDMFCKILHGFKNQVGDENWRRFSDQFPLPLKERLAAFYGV

On to “MBP-H3 Tail(1–47) R26A (from UniProt P68431 2-48) (domain or fragment)”, for which the Kd worked out at 122 nM.

The substance “MBP-H3 Tail(1–47) R17A (from UniProt P68431 2-48) (domain or fragment)” displayed a Kd of 389 nM. “MBP-H3 Tail(1–47) K18A (from UniProt P68431 2-48) (domain or fragment)” came in with a Kd of 120 nM. Under “MBP-H3 Tail(1–47) K23A (from UniProt P68431 2-48) (domain or fragment)” stands 148 nM; under “MBP-H3 Tail(1–47) K23A, R26A, K27A (from UniProt P68431 2-48) (domain or fragment)”, 119 nM; under “MBP-H3 Tail(1–47) wild-type (from UniProt P68431 2-48) (domain or fragment)”, 77.1 nM.

“MBP-H3 Tail(1–47) K27A (from UniProt P68431 2-48) (domain or fragment)” yielded a Kd of 133 nM.
